“Also recorded” adds a separate entry of the source.
How the values were obtained:
[1] = system: pSTAT3, pJNK, pERK, and pAKT signaling; test: Western blot analysis of downstream OSM signaling in MDA-MB-231 cell lysates; format: cell-based, human; settings: MDA-MB-231 cells; 5 μM
[2] = system: Du145 and PC3+STAT3 human prostate cancer cells; test: OSM-induced detachment of human prostate cancer cells; format: cell-based; settings: OSM 5 ng/mL, inhibitors 5 μM, 5 days
Protocol: FIGS. 15A and 15B. […] Detachment for FIG. 15A) Du145 and 15B) PC3+STAT3 human prostate cancer cells. 10,000 cells were plated in a 24-well plate in 1 mL complete media that was pre-incubated with OSM (5 ng/mL) and inhibitors (5 μM) for 1 hour. After 5 days, the detached cells were stained with Trypan Blue and counted using a hemocytometer.

[3] = system: PC-3 prostate cancer cell line; test: Proliferation and detachment of PC-3 cells treated with OSM; format: cell-based, human; settings: OSM 17.5 ng/ml
Protocol: (§1) Prostate cancer cell lines DU-145 and PC-3 were plated in triplicate in complete RPMI media at a cell density of 1,000 cells/ml and allowed to adhere overnight. Cells were treated the next day with OSM at a concentration of 17.5 ηg/ml (untreated cells were used as a control). Both detached cells and total cells were counted on days 1, 3, 5, 7, and 9. Detached cells were collected, stained with trypan blue and viable cells were counted using a hemocytometer. Adherent cells were trypsinized, stained with trypan blue and viable cells were counted on a hemocytometer. To look at the effects of OSM on prostate cancer cell proliferation, the number of viable detached cells and adherent cells were added together to determine the total number of cells.

[4] = system: OSM-induced phosphorylation of STAT3 on Tyr-705 (pSTAT3); test: pSTAT3 ELISA after OSM stimulation; format: cell-based; settings: human breast cancer cells; OSM 25 ng/ml, 30 minutes
Excerpt: FIGS. 16A-16D. […] This method can be used for in vitro screening of lead compounds that inhibit OSM signaling. […] Cell lysates were collected and pSTAT3 levels were measure by ELISA.
Next an enzyme-linked immunosorbent assay (ELISA) for analyzing initial OSM-induced phosphorylation of STAT3 on Tyr-705 (pSTAT3) will be employed for the initial screen. […] The ability of the top 100 OSM-SMIs to inhibit OSM-OSMR interactions that result in expression of pSTAT3 will be evaluated by this assay and cells will be pretreated with the OSM-SMIs for 2 hours prior to the addition of OSM. As positive controls, neutralizing antibodies to human OSM or human gp130 will establish baseline pSTAT3 levels in the ELISA assay (FIG. 16A).
Actual physiological levels of OSM may be much lower than the nanogram levels used here. […] Therefore, testing inhibitors using lower concentrations of OSM may better allow for the detection of Effects at physiologically relevant concentrations.
Additionally, a functional dose response curve for OSM-SMI activity will be generated through 2 log units of concentration of compounds and used to establish the dynamic range of OSM-SMI activity. This will be used to determine the half maximal inhibitory concentration (IC50) as well as the minimum effective concentration (Ceff) for each compound.

[5] = system: MDA-MB-231 D3H2LN luc2 cells; test: MDA-MB-231 D3H2LN luc2 orthotopic xenograft with peri-tumoral OSM injections; format: in vivo, mouse
Protocol: For xenograft models, six-week-old female nude mice were obtained from the National Cancer Institute's Animal Production Facility (Frederick, Md.). Non-surgical orthotopic injections were performed using 2.0×10^6 cells diluted in 50 μL of PBS containing 10% medium. When the tumors became palpable, mice were randomized into groups and began receiving per-tumoral injections. For peri-tumoral injections, either 50 μL PBS or 1 μg recombinant full length human OSM (Peprotech) diluted in 50 μL PBS was injected into the area surrounding the tumor three times per week until the end point of the experiment.
Detection of human circulating tumor cells (CTCs) in mouse blood was performed. Human DNA standard curve was prepared by adding a specified number of human MDA-MB-231 cells into mouse blood and the DNA isolated for use in the qPCR reactions. Whole DNA was isolated from 100 μl of whole blood collected from mice at the end of the experiment. DNA was isolated using DNeasy Blood & Tissue kit (Quiagen Cat#) using the manufacturer's standard instructions. DNA concentrations were normalized between each sample and 4.5 ng of DNA was added to each 25 μl qPCR reaction. qPCR reaction mixture was obtained from the GoTaq qPCR Master Mix (Promega, Cat#TM318, Madison Wis.), and reaction mixtures were prepared in accordance with manufacturer recommendations. 0.125 μl of 100 μM primers for human Alu fragment, and for GAPDH was added to each reaction. The primer sequences used for Alu was (s:[…] a:[…]) and for
GAPDH the sequence used was (s: […]; a: […]). The qPCR reaction was done with SYBR green chemistry using a CXR reference dye and ran on an Applied Biosystems AB7300 real-time thermocycler. Reaction conditions were: 50° C. for 2 minutes, 95° C. for 3 minutes and 40 cycles of: (95° C. 00:15, 60° C. 00:30, 72° C. 00:30) and fluorescence measurements were taken during the annealing temperature stage (60° C.). cT values were determined and the final results were normalized to GAPDH signal levels.
BLI of live animals was initiated at 13 days after cell line injection and performed weekly. Three to five mice were imaged at one time. Ex vivo organs were also imaged using BLI. Both procedures follow our previously described protocols.
To determine the influence of OSM in human breast cancer, we used a xenograft model. MDA-MB-231 D3H2LN luc2 cells were injected into the fourth mammary fat pads of female nude mice. After the tumors were palpable, OSM (1 μg) or PBS were injected peri-tumorally 3 times per week (FIG. 6A), and mice were monitored until the end-point criteria were met. Tumor size was measured using calipers three times per week for the duration of the experiment and expressed as tumor volume (mm^3)=[…]. […] Next, BLI intensity of the cells was assessed in vivo. The BLI intensities of the tumors from both groups were similar with variations in intensities in both groups (FIG. 6C). A few mice in both groups had lower BLI intensities due to tumor necrosis.
Ex vivo analysis of the lungs was performed. […] Next, quantification of the BLI intensities of the lungs was performed.
Our studies on detecting CTCs involve the usage of the Alu transposon repeats for detecting human cells in mouse blood, and with colony forming assays that detects all transformed cells in the blood. […] In order to detect circulating tumor cells in the mouse circulatory system, DNA was isolated from mouse blood, and human alu fragment concentrations were determined in the blood by qPCR. […]

IL-6 [6] = test: IL-6 ELISA on conditioned media of OSM treated 4T1.2 cells; format: cell-based, mouse; settings: rmOSM 25 ηg/ml, 48 hours
Protocol: (§2) 1×10^5T47D, MDA-MB-231, MCF7, MDA-MB-468, or 4T1.2 cells were plated in multi-well plates in the presence or absence of OSM for […]. Conditioned media was collected, diluted 1:5 and an IL-6 ELISA was performed as according to the manufacturer's recommended instructions.
(§3) OSM induced IL-6 expression was studied on various cell lines including two ER+ cell lines, T47D and MCF7, and three ER− cell lines MDA-MB-468, MDA-MB-231, and 4T1.2 cells. rhOSM was used for the four human cell lines at a concentration of 25 ηg/ml while rmOSM was used for the 4T1.2 cells at a concentration of 25 ηg/ml. The cells were incubated in OSM for a total of 48 hours and IL-6 levels in the conditioned media was assessed by ELISA. […] In the 4T1.2 mouse mammary cancer cells, OSM induced IL-6 by approximately 4-fold (FIG. 7). To test if OSM induced IL-6 in vivo, tumors from the MDA-MB-231 injected mice were lysed, homogenized, and the IL-6 levels were analyzed by ELISA.

IL-6 [7] = test: IL-6 ELISA on conditioned media of OSM treated human breast cancer cell lines; format: cell-based; settings: OSM 25 ηg/ml, 48 hours
Protocol: as §2, §3

[8] = system: DU-145 prostate cancer cell line; test: Proliferation, detachment and morphology of DU-145 cells treated with OSM; format: cell-based, human; settings: OSM 17.5 ng/ml
Protocol: as §1
The Epithelial-Mesenchymal Transition (EMT) was also measured. During the proliferation and detachment assays detailed above, micrographs of the DU-145 cells were taken at day 5 before cells were collected and counted.

[9] = system: PC-3 prostate cancer cell line; test: Matrigel invasion assay, PC-3; format: cell-based, human
Protocol: (§4) FIG. 14. Invasive Potential for the DU-145 and PC-3 Prostate Cancer Cell Lines.
(§5) Invasion potential was also measured. OSM increased the invasion potential of both DU-145 and PC-3 cell lines (FIG. 14).

[10] = system: DU-145 prostate cancer cell line; test: Matrigel invasion assay, DU-145; format: cell-based, human
Protocol: as §4, §5

In the case of O=[N+]([O-])c1c(/C=N/Nc2ccccc2)oc(-c2ccc3c(c2)OCO3)c1-c1ccc2c(c1)OCO2 [OSM-SMI-10], the “inhibition of OSM downstream signaling” value [1] is reported as “inhibited signaling to various extents” and the OSM-induced detachment [2] is reported as “decrease OSM-induced detachment”.

Cc1nc(C(N)=S)sc1C(=O)CC(=O)C(=O)Nc1nc2ccccc2[nH]1 [OSM-SMI-11] was tested, and the “inhibition of OSM downstream signaling” value [1] was “inhibited signaling to various extents” and the OSM-induced detachment [2] was “decrease OSM-induced detachment”.

B1: OSM: Oncostatin M, IL-6 family cytokine; recombinant human OSM used as stimulus on cells and by peri-tumoral injection (protein, listed as Homo sapiens)
chain: MGVLLTQRTLLSLVLALLFPSMASMAAIGSCSKEYRVLLGQLQKQTDLMQDTSRLLDPYIRIQGLDVPKLREHCRERPGAFPSEETLRGLGRRGFLQTLNATLGCVLHRLADLEQRLPKAQDLERSGLNIEDLEKLQMARPNILGLRNNIYCMAQLLDNSDTAEPTKAGRGASQPPTPTPASDAFQRKLEGCRFLHGYHRFMHSVGRVFSKWGESPNRSRRHSPHQALRKGVRRTRPSRKGKRLMTRGQLPR
For B1, the detachment [3] was “not and did not show increased detachment”, the proliferation [3] was “not and did not show increased proliferation” and the “induction of pSTAT3 by OSM” value [4] was “induced pSTAT3; also recorded: induce pSTAT3 expression”. The “metastatic volume within the lungs” value ([5]; ex vivo analysis, peri-tumoral OSM versus PBS) was “larger metastatic volume”, the “BLI intensities of the lungs, OSM injected group higher than PBS injected group” value ([5]; ex vivo lungs, orders of magnitude) was 10^2 and the “tumor volume versus PBS group” value ([5]; female nude mice, OSM 1 μg peri-tumorally 3 times per week) was “did not differ”. For the same molecule, the “ex vivo lung BLI intensity versus PBS injections” value ([5]; female nude mice, peri-tumoral OSM) was 200 fold, the “increase in number of circulating tumor cells per 100 μl of mouse blood” value ([5]; human Alu qPCR, versus animals without OSM injections) was 3.5 fold and the “IL-6 induction by OSM” value (IL-6 [6]) was 4-5 fold. For the same molecule, the “IL-6 induction by OSM” value (IL-6 [7]; MCF7 cells (ER+)) was “did not change”, the “IL-6 induction by OSM” value (IL-6 [7]; MCF7 cells (ER+), listed as rhOSM) was “did not induce IL-6” and the “IL-6 induction by OSM” value (IL-6 [7]; MDA-MB-231 cells) was 4-5 fold. For the same molecule, the “IL-6 induction by OSM” value (IL-6 [7]; MDA-MB-231 cells, listed as rhOSM) was “approximately 4 fold”, the “IL-6 induction by OSM” value (IL-6 [7]; MDA-MB-468 cells) was 4-5 fold and the “IL-6 induction by OSM” value (IL-6 [7]; MDA-MB-468 cells, listed as rhOSM) was “approximately 5 fold”. For the same molecule, the “IL-6 induction by OSM” value (IL-6 [7]; T47D cells (ER+)) was “did not change”, the “IL-6 induction by OSM” value (IL-6 [7]; T47D cells (ER+), listed as rhOSM) was “did not induce IL-6” and the detachment ([8]; 5 days, versus untreated cells) was “significantly increased; also recorded: increased detachment”. For the same molecule, the proliferation ([8]; 5 days, versus untreated cells) was “significantly increased; also recorded: increased proliferation”, the “morphology (EMT)” value ([8]; day 5) was “more mesenchymal morphology; also recorded: mesenchymal orphology characteristic of having undergone EMT” and the invasion potential ([9]; OSM 17.5 ng/ml, 24 hours) was “increased invasion potential”. The “treated cells showing an invasive potential” value ([9]; OSM treated PC-3 cells) was 21%, the “increase in invasive potential versus untreated” value ([9]; PC-3 cells pretreated with OSM for 72 hours) was 4 fold and the invasion potential ([10]; OSM 17.5 ng/ml, 24 hours) was “increased invasion potential”. For the same molecule, the “treated cells showing an invasive potential” value ([10]; OSM treated DU-145 cells) was “Twenty three”.

B2: rmOSM: recombinant mouse OSM used for the 4T1.2 cells (protein, UniProt P53347 25-206, looked up)
Oncostatin-M: NRGCSNSSSQLLSQLQNQANLTGNTESLLEPYIRLQNLNTPDLRAACTQHSVAFPSEDTLRQLSKPHFLSTVYTTLDRVLYQLDALRQKFLKTPAFPKLDSARHNILGIRNNVFCMARLLNHSLEIPEPTQTDSGASRSTTTPDVFNTKIGSCGFLWGYHRFMGSVGRVFREWDDGSTRSRR
With B2 the “IL-6 induction by OSM” value (IL-6 [6]) was “approximately 4 fold”.

From patent US10286070B2, “Oncostatin M (OSM) antagonists for preventing cancer metastasis and IL-6 related disorders” (Boise State University, priority 2013, dated 2019)
